Measurements as given in patent publication US20220323619A1 (TELIX INTERNATIONAL, published 2022).
Where a chain is given by its changes, count along the chain named. In names and notes the source's numbering stands.

Tests used:
[1] = target: T1, human FcγRI (Sino Biological, His-tagged) (human, UniProt P12314 16-288, limits assumed); test: Biacore single cycle, His-tagged receptor captured on anti-His CM5 chip, antibody analyte; 1:1 kinetics
T1 construct: Bought product; also called FcgRI; not shown: His tag
T1 sequence (P12314 16-288 limits assumed): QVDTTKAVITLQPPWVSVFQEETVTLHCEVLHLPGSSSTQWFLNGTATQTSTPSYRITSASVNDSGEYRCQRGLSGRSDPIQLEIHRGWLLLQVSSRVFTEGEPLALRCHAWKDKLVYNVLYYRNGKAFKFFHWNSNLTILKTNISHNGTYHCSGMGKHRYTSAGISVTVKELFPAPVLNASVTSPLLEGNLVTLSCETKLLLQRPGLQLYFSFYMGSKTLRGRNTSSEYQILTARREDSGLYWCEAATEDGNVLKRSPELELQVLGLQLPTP

[2] = target: T2, human FcγRIIa 167R (Sino Biological, His-tagged) (human, UniProt P12318 34-218, limits assumed); test: Biacore single cycle, His-tagged receptor captured on anti-His CM5 chip, antibody analyte; steady state
T2 construct: not shown: His tag
T2 sequence (looked up): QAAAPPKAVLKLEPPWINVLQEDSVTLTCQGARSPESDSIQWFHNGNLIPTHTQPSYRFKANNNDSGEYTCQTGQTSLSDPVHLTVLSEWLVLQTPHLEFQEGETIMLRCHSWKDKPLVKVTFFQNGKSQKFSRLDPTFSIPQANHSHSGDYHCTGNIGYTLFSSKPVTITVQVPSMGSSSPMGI

[3] = target: T3, human FcγRIIa 167H (Sino Biological, His-tagged) (human, UniProt P12318 34-218, limits assumed); test: as above
T3 construct: not shown: His tag
T3 sequence (looked up): T2 sequence (looked up) with R134H

[4] = target: T4, human FcγRIIb (Sino Biological, His-tagged) (human, UniProt P31994 43-217, limits assumed); test: as above
T4 construct: not shown: His tag
T4 sequence (looked up): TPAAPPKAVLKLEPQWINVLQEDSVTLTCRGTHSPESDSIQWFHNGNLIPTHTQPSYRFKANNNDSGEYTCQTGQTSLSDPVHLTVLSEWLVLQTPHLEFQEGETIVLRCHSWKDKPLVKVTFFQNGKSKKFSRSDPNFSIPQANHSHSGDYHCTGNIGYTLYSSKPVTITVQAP

[5] = target: T5, human FcγRIIIa 176F (Sino Biological, His-tagged) (human, UniProt P08637 17-208); test: as above
T5 construct: not shown: His tag
T5 sequence (P08637 17-208 limits assumed): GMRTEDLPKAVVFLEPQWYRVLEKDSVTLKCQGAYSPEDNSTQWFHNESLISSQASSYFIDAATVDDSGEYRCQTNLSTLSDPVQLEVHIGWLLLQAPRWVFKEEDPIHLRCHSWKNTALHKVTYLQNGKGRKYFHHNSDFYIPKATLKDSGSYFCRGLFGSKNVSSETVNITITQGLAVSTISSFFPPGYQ

[6] = target: T6, human FcγRIIIa 176V (Sino Biological, His-tagged) (human, UniProt P08637 17-208); test: as above
T6 construct: not shown: His tag
T6 sequence (P08637 17-208 F176V limits assumed): as the sequence (P08637 17-208 limits assumed) above, with F160V counted along it

[7] = target: T7, human FcγRIIIb (Sino Biological, His-tagged) (human, UniProt O75015 17-200, limits assumed); test: as above
T7 construct: not shown: His tag
T7 sequence (O75015 17-200 limits assumed): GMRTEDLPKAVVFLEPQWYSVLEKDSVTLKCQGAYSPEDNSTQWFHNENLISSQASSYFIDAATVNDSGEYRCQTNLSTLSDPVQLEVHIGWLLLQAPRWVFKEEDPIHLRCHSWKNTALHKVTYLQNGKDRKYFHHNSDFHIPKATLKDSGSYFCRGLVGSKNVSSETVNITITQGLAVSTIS

[8] = target: T8, prostate-specific membrane antigen (PSMA) (R&D Systems) (UniProt Q04609 44-750); test: Biacore multi-cycle kinetics, antibody captured on Protein G chip, PSMA analyte 1.5625-25 nM
T8 construct: Soluble analyte in the Biacore assay
T8 sequence (Q04609 44-750 limits assumed): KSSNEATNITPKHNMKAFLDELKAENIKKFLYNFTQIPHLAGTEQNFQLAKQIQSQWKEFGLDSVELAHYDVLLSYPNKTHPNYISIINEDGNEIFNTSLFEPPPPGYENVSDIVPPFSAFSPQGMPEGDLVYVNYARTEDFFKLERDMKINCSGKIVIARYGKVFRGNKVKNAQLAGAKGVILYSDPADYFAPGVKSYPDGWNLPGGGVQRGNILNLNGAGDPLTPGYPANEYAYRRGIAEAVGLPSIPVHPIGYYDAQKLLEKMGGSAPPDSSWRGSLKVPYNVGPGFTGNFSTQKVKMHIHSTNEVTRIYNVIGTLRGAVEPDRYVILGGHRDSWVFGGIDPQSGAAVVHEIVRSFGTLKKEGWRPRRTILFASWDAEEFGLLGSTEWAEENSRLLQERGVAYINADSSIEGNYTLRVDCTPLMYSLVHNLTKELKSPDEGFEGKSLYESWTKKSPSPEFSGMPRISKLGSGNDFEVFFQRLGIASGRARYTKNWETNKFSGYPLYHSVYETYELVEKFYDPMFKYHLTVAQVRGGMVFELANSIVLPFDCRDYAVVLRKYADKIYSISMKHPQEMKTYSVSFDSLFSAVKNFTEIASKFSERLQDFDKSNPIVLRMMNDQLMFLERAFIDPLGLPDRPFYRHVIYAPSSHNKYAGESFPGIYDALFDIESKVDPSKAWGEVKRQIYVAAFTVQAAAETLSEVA

Measured: binding result

B1: ANT4044 IgG1 (H310A, H435Q) (antibody)
heavy: not shown
light: DIQMTQSPSTLSASVGDRVTITCKASQDVGTAVDWYQQKPGQAPKLLIYWASTRHTGVPDRFSGSGSGTDFTLTISRLQPEDFAVYYCQQYNSYPLTFGQGTKVDIKRTVAAPSVFIFPPSDEQLKSGTASVVCLLNNFYPREAKVQWKVDNALQSGNSQESVTEQDSKDSTYSLSSTLTLSKADYEKHKVYACEVTHQGLSSPVTKSFNRGEC
notes: also called ANT4044-IgG1-2M; ANT4044-FcRn
not listed: [8]
binds: all other assays above

B2: ANT4044-A2 IgG4 (S228P, L235E, H310A, H435Q) (antibody)
heavy: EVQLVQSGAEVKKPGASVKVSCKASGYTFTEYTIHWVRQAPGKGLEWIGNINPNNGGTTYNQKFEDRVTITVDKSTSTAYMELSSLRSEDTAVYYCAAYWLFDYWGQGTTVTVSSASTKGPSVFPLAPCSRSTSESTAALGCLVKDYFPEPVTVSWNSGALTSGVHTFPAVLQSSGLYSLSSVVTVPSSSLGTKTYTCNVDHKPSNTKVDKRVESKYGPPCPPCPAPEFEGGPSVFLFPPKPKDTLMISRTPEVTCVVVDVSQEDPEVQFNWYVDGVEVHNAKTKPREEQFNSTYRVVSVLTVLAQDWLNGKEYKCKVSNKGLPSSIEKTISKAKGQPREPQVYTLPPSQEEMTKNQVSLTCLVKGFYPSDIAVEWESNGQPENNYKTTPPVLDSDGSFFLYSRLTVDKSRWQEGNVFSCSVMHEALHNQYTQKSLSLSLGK
light: B1 light
notes: also called ANT4044-A2 RADmAb IgG4
binds: [8]

B3: ANT4044-A2 IgG1 (H310A, H435Q) (antibody)
heavy: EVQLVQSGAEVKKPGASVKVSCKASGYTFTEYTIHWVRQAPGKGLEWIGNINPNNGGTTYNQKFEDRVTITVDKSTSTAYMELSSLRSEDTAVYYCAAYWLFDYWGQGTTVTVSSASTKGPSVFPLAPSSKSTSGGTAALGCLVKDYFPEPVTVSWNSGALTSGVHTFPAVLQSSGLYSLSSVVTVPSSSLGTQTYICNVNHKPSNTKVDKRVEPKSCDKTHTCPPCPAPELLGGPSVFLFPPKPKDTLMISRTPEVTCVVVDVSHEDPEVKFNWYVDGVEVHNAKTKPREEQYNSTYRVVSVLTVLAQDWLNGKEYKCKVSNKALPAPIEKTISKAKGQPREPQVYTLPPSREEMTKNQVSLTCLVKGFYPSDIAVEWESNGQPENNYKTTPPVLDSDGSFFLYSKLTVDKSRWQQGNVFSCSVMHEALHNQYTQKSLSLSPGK
light: B1 light
notes: also called ANT4044-A2 RADmAb IgG1
binds: all assays above

B4: ANT4044-A2 IgG1 (antibody)
heavy: not shown
light: B1 light
notes: also called ANT4044-A2 expressed as unmodified IgG1
binds: [8]
